Data published in publication PMC9352680, “A comprehensive thermodynamic model for RNA binding by the Saccharomyces cerevisiae Pumilio protein PUF4”.

T1: PUF4 RNA-binding domain (Saccharomyces cerevisiae, UniProt P25339 537-888)
T1 sequence: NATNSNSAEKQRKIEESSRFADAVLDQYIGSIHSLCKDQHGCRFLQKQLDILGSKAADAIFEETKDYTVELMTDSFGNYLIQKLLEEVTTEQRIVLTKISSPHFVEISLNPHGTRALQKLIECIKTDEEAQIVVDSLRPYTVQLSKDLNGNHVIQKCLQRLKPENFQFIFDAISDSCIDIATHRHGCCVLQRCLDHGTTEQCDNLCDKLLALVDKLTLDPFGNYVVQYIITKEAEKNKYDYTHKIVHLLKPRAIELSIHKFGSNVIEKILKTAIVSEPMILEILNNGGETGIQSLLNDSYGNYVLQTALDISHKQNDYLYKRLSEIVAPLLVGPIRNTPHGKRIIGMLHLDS


Target: T1, PUF4 RNA-binding domain
Test: Mg; RNA-MaP; 20 mM Na-HEPES pH 7.4, 30 mM KOAc, 0.75 mM MgCl2, 0.1% Tween-20, 5% glycerol, 0.1 mg/mL BSA, 2 mM DTT; 25 C; 0.0125-409.6 nM protein
Conditions: tags: N-His6-TEV cleaved; C-SNAP kept, Cy3B-labelled; label: tethered on chip by stalled RNA polymerase

| Binder | Kd [nM] |
| --- | --- |
| UCUCUUCUUGUACUUAUAUAUCUCUU (ssRNA) [Ie_S1_P3E.2_K3.1_C3.2_H3.1_[+4CT]_A3.1_F3.1_T3.2] | 6.52 |
| UCUCUUCUUGCUCUCUAUAUAUAUCUCUU (ssRNA) [Ie_S1_P3E.2_K3.1_C3.2_H3.1_[+2CTCTC]_A3.1_F3.1_T3.2] | 1140 |
| UCUCUUCUUGUAUAUCCCAUAUCUCUU (ssRNA) [Ie_S1_P3E.2_K3.1_C3.2_H3.1_A3.1_F3.1_[+7CCC]_T3.2] | 37.9 |
| UCUCUUCUUGUACUCUCUAUAUAUCUCUU (ssRNA) [Ie_S1_P3E.2_K3.1_C3.2_H3.1_[+4CTCTC]_A3.1_F3.1_T3.2] | 31 |
| UCUCUUCUUGUAUAUAUUAUCUCUU (ssRNA) [Ie_S1_P3E.2_K3.1_C3.2_H3.1_A3.1_F3.1_[+8T]_T3.2] | 5.64 |
| UCUCUUCUUGUUCUAUAUAUAUCUCUU (ssRNA) [Ie_S1_P3E.2_K3.1_C3.2_H3.1_[+3TCT]_A3.1_F3.1_T3.2] | 53.2 |
| UCUCUUUGUAUCUUUAUCUCUU (ssRNA) [Ib_S1_P5E.1_K5.1_C5.1_H5.1_A5.1_[T6C]_[A7T]_F5.1_T5.1] | 6.01 |
| UCUCUUCUUGUUUUAUAUAUAUCUCUU (ssRNA) [Ie_S1_P3E.2_K3.1_C3.2_H3.1_[+2TTT]_A3.1_F3.1_T3.2] | 27.9 |
| UCUCUUUGUAUGGUUAUCUCUU (ssRNA) [Ib_S1_P5E.1_K5.1_C5.1_H5.1_A5.1_[T6G]_[A7G]_F5.1_T5.1] | 37.1 |
| UCUCUUCUUGUAUAUACUAUCUCUU (ssRNA) [Ie_S1_P3E.2_K3.1_C3.2_H3.1_A3.1_F3.1_[+8C]_T3.2] | 8.83 |
| UCUCUUCUUGUAUUAUAUAUCUCUU (ssRNA) [Ie_S1_P3E.2_K3.1_C3.2_H3.1_A3.1_[+5T]_F3.1_T3.2] | 2.15 |
| UCUCUUCUUGUAUAUCUCAUAUCUCUU (ssRNA) [Ie_S1_P3E.2_K3.1_C3.2_H3.1_A3.1_F3.1_[+7CTC]_T3.2] | 24.7 |
| UCUCUUCUUGUCUCUAUAUAUAUCUCUU (ssRNA) [Ie_S1_P3E.2_K3.1_C3.2_H3.1_[+2TCTC]_A3.1_F3.1_T3.2] | 456 |
| UCUCUUCUUGUAUCCAUAUAUCUCUU (ssRNA) [Ie_S1_P3E.2_K3.1_C3.2_H3.1_A3.1_[+5CC]_F3.1_T3.2] | 29.9 |
| UCUCUUCUUGUCUAUAUAUAUCUCUU (ssRNA) [Ie_S1_P3E.2_K3.1_C3.2_H3.1_[+2TC]_A3.1_F3.1_T3.2] | 844 |
| Ic_S2_P3E.1_K3.1_C3.1_H3.1_A3.1_F3.1_[A8T]_T3.1 (ssRNA) RNA: UUUGAUUAAUAUGAUAUCGUUCUUUCUUGUAUAUUUUCUUUCUCGAUAUCAUAUUAAUCUUU | 1.67 |
| UCUCUUCUUGUAUAUACCCUUAUCUCUU (ssRNA) [Ie_S1_P3E.2_K3.1_C3.2_H3.1_A3.1_F3.1_[+8CCCT]_T3.2] | 12.3 |
| UCUCUUCUUGUUCAUAUAUAUCUCUU (ssRNA) [Ie_S1_P3E.2_K3.1_C3.2_H3.1_[+3TC]_A3.1_F3.1_T3.2] | 98.7 |
| UCUCUUCUUGUACCCUAUAUAUCUCUU (ssRNA) [Ie_S1_P3E.2_K3.1_C3.2_H3.1_[+4CCC]_A3.1_F3.1_T3.2] | 8.38 |
| UCUCUUCUUGUACUAUAUAUCUCUU (ssRNA) [Ie_S1_P3E.2_K3.1_C3.2_H3.1_[+4C]_A3.1_F3.1_T3.2] | 1.5 |
| UCUCUUCUUGUCAUAUAUAUCUCUU (ssRNA) [Ie_S1_P3E.2_K3.1_C3.2_H3.1_[+3C]_A3.1_F3.1_T3.2] | 67 |

| Binder | Kd [nM] |
| --- | --- |
| UCUCUUCUUGUAUAUAUUCCUAUCUCUU (ssRNA) [Ie_S1_P3E.2_K3.1_C3.2_H3.1_A3.1_F3.1_[+8TTCC]_T3.2] | 6.86 |
| UCUCUUCUUGUACCUAUAUAUCUCUU (ssRNA) [Ie_S1_P3E.2_K3.1_C3.2_H3.1_[+4CC]_A3.1_F3.1_T3.2] | 17.6 |
| UCUCUUCUUGUAUAUAUUUUAUCUCUU (ssRNA) [Ie_S1_P3E.2_K3.1_C3.2_H3.1_A3.1_F3.1_[+8TTT]_T3.2] | 6.71 |
| UCUCUUCUUGUCUUAUAUAUAUCUCUU (ssRNA) [Ie_S1_P3E.2_K3.1_C3.2_H3.1_[+3CTT]_A3.1_F3.1_T3.2] | 95.5 |
| UCUCUUCUUGUAUAUACUUAUCUCUU (ssRNA) [Ie_S1_P3E.2_K3.1_C3.2_H3.1_A3.1_F3.1_[+8CT]_T3.2] | 9.04 |
| UCUCUUCUUGUAUAUAUCCUAUCUCUU (ssRNA) [Ie_S1_P3E.2_K3.1_C3.2_H3.1_A3.1_F3.1_[+8TCC]_T3.2] | 10.2 |
| UCUCUUCUUGUAUAUACUCUAUCUCUU (ssRNA) [Ie_S1_P3E.2_K3.1_C3.2_H3.1_A3.1_F3.1_[+8CTC]_T3.2] | 11.7 |
| UCUCUUCUUGUCCAUAUAUAUCUCUU (ssRNA) [Ie_S1_P3E.2_K3.1_C3.2_H3.1_[+3CC]_A3.1_F3.1_T3.2] | 822 |
| UCUCUUUGUAUCCUUAUCUCUU (ssRNA) [Ib_S1_P5E.1_K5.1_C5.1_H5.1_A5.1_[T6C]_[A7C]_F5.1_T5.1] | 9.16 |
| UCUCUUCUUGCCCUUAUAUAUAUCUCUU (ssRNA) [Ie_S1_P3E.2_K3.1_C3.2_H3.1_[+2CCCT]_A3.1_F3.1_T3.2] | 1190 |
| UCUCUUCUUGUAUAUAUCUCUAUCUCUU (ssRNA) [Ie_S1_P3E.2_K3.1_C3.2_H3.1_A3.1_F3.1_[+8TCTC]_T3.2] | 5.63 |
| UCUCUUCUUGUUCCAUAUAUAUCUCUU (ssRNA) [Ie_S1_P3E.2_K3.1_C3.2_H3.1_[+3TCC]_A3.1_F3.1_T3.2] | 26.1 |
| UCUCUUCUUGUACUCUAUAUAUCUCUU (ssRNA) [Ie_S1_P3E.2_K3.1_C3.2_H3.1_[+4CTC]_A3.1_F3.1_T3.2] | 3.95 |
| UCUCUUCUUGCCUAUAUAUAUCUCUU (ssRNA) [Ie_S1_P3E.2_K3.1_C3.2_H3.1_[+2CC]_A3.1_F3.1_T3.2] | 1170 |
| UCUCUUCUUGUAUAUCUCUCAUAUCUCUU (ssRNA) [Ie_S1_P3E.2_K3.1_C3.2_H3.1_A3.1_F3.1_[+7CTCTC]_T3.2] | 28.5 |
| UCUCUUCUUGUUUCCUAUAUAUAUCUCUU (ssRNA) [Ie_S1_P3E.2_K3.1_C3.2_H3.1_[+3TTCCT]_A3.1_F3.1_T3.2] | 106 |
| UCUCUUCUUGUCCUCUAUAUAUAUCUCUU (ssRNA) [Ie_S1_P3E.2_K3.1_C3.2_H3.1_[+3CCTCT]_A3.1_F3.1_T3.2] | 139 |
| UCUCUUCUUGUACCUCUAUAUAUCUCUU (ssRNA) [Ie_S1_P3E.2_K3.1_C3.2_H3.1_[+4CCTC]_A3.1_F3.1_T3.2] | 12.4 |
| UCUCUUCUUGUACCCUUUAUAUAUCUCUU (ssRNA) [Ie_S1_P3E.2_K3.1_C3.2_H3.1_[+4CCCTT]_A3.1_F3.1_T3.2] | 20.6 |
| UCUCUUCUUGUUCUCUAUAUAUAUCUCUU (ssRNA) [Ie_S1_P3E.2_K3.1_C3.2_H3.1_[+3TCTCT]_A3.1_F3.1_T3.2] | 68.4 |
| UCUCUUCUUGUUUCCAUAUAUAUCUCUU (ssRNA) [Ie_S1_P3E.2_K3.1_C3.2_H3.1_[+3TTCC]_A3.1_F3.1_T3.2] | 69.3 |

| Binder | Kd [nM] |
| --- | --- |
| UCUCUUCUUGUAUCAUAUAUCUCUU (ssRNA) [Ie_S1_P3E.2_K3.1_C3.2_H3.1_A3.1_[+5C]_F3.1_T3.2] | 1.6 |
| UCUCUUCUUGUAUACUAUAUCUCUU (ssRNA) [Ie_S1_P3E.2_K3.1_C3.2_H3.1_A3.1_[+6C]_F3.1_T3.2] | 0.878 |
| UCUCUUCUUGCCUCUUAUAUAUAUCUCUU (ssRNA) [Ie_S1_P3E.2_K3.1_C3.2_H3.1_[+2CCTCT]_A3.1_F3.1_T3.2] | 1680 |
| UCUCUUCUUGUACUCUUAUAUAUCUCUU (ssRNA) [Ie_S1_P3E.2_K3.1_C3.2_H3.1_[+4CTCT]_A3.1_F3.1_T3.2] | 9.53 |
| UCUCUUCUUGUAUAUUUCAUAUCUCUU (ssRNA) [Ie_S1_P3E.2_K3.1_C3.2_H3.1_A3.1_F3.1_[+7TTC]_T3.2] | 6.46 |
| UCUCUUCUUGUAUAUAUCUAUCUCUU (ssRNA) [Ie_S1_P3E.2_K3.1_C3.2_H3.1_A3.1_F3.1_[+8TC]_T3.2] | 9.28 |
| UCUCUUCUUGUAUAUACCUUAUCUCUU (ssRNA) [Ie_S1_P3E.2_K3.1_C3.2_H3.1_A3.1_F3.1_[+8CCT]_T3.2] | 8.91 |
| UCUCUUCUUGUAUAUUCAUAUCUCUU (ssRNA) [Ie_S1_P3E.2_K3.1_C3.2_H3.1_A3.1_F3.1_[+7TC]_T3.2] | 10.3 |
| UCUCUUCUUGCUCUUAUAUAUAUCUCUU (ssRNA) [Ie_S1_P3E.2_K3.1_C3.2_H3.1_[+2CTCT]_A3.1_F3.1_T3.2] | 824 |
| UCUCUUCUUGUCCCAUAUAUAUCUCUU (ssRNA) [Ie_S1_P3E.2_K3.1_C3.2_H3.1_[+3CCC]_A3.1_F3.1_T3.2] | 64.7 |
| UCUCUUCUUGUAUAUUCCAUAUCUCUU (ssRNA) [Ie_S1_P3E.2_K3.1_C3.2_H3.1_A3.1_F3.1_[+7TCC]_T3.2] | 9.71 |
| UCUCUUCUUGUAUAUAUUCUAUCUCUU (ssRNA) [Ie_S1_P3E.2_K3.1_C3.2_H3.1_A3.1_F3.1_[+8TTC]_T3.2] | 4.4 |
| UCUCUUCUUGCCUUAUAUAUAUCUCUU (ssRNA) [Ie_S1_P3E.2_K3.1_C3.2_H3.1_[+2CCT]_A3.1_F3.1_T3.2] | 1510 |
| UCUCUUCUUGUCCCUAUAUAUAUCUCUU (ssRNA) [Ie_S1_P3E.2_K3.1_C3.2_H3.1_[+3CCCT]_A3.1_F3.1_T3.2] | 454 |
| UCUCUUUGUAUGCUUAUCUCUU (ssRNA) [Ic_S1_P5E.1_K5.1_C5.1_H5.1_A5.1_[T6G]_[A7C]_F5.1_T5.1] | 32 |
| UCUCUUCUUGUCCUAUAUAUAUCUCUU (ssRNA) [Ie_S1_P3E.2_K3.1_C3.2_H3.1_[+2TCC]_A3.1_F3.1_T3.2] | 62.9 |
| UCUCUUUGUAUCGUUAUCUCUU (ssRNA) [Ib_S1_P5E.1_K5.1_C5.1_H5.1_A5.1_[T6C]_[A7G]_F5.1_T5.1] | 14.4 |
| UCUCUUCUUGUUCCUAUAUAUAUCUCUU (ssRNA) [Ie_S1_P3E.2_K3.1_C3.2_H3.1_[+2TTCC]_A3.1_F3.1_T3.2] | 104 |
| UCUCUUCUUGUCCUCAUAUAUAUCUCUU (ssRNA) [Ie_S1_P3E.2_K3.1_C3.2_H3.1_[+3CCTC]_A3.1_F3.1_T3.2] | 798 |
